Assays:
[1] = target: deglycosylated ACE2 treated with PNGase F (human) (UniProt Q9BYF1); experiment: AFM single-molecule force spectroscopy
[2] = target: soluble recombinant human ACE2 (Gln18-Ser740), His-tagged (human) (UniProt Q9BYF1); experiment: AFM single-molecule force spectroscopy

**Q.** What does the source list for “SARS-CoV-1 spike receptor-binding domain (residues 318-510) with C-terminal Fc tag (Fc fusion; modification not given)”?
**A.** koff [1]: 3.4 s⁻¹; koff [2]: 0.57 s⁻¹

Source: publication PMC7886630
